Reference: patent publication US20230037682A1 (published 2023)
Where two headings read alike, the source gives them in different places. One block for each binder: values may come before it.

Tests used:
CD3 peptide [1] = assay: SPR (Biacore); 25 °C
CD3 peptide [2] = assay: SPR (Biacore); 25 °C; remark: listed apart in the source

Kd (CD3 peptide [1]): 0.00459 µM
B1: CD3_13 (NOV292) (antibody, V domains shown)
VH: QVQLVESGGGVVQPGRSLRLSCAASGFTFSKNGMHWVRQAPGKGLEWVAMIYYDSSKMYYADTVKGRFTISRDNSKNTLYLQMNSLRAEDTAVYYCASFWWDLDFDHWGQGTMVTVSS
VL: DIVMTQTPLSSPVTLGQPASISCRSSQSLVRSDGTTYFNWYQQRPGQPPRLLIYRVSNRFSGVPDRFSGSGAGTDFTLKISRVEAEDVGVYYCLQSSHFPWTFGGGTKVEIKR

Kd (CD3 peptide [2]): 0.262 µM
B2: CD3_12 (NOV123) (antibody, V domains shown)
VH: QVQLVQSGAEVKKPGASVKVSCKASGYTFTSYYIYWVRQAPGQRLEWMGYIYPGHDAIYYSENFKGRVTITADTSASTAYMELSSLRSEDTAVYYCVRPNTMMAPLAYWGQGTLVTVSS
VL: DVVMTQSPLSLPVTLGQPASISCRSSQSLIYSIGNTYLHWYQQRPGQSPRLLIYRVSNRFSGVPDRFSGSGSGTDFTLKISRVEAEDVGVYYCFQSTHLPYTFGQGTKLEIKR
